What was measured:
Assay in all cases: sandwich ELISA, AM14 coated, supernatant 1:10
[1] = biological target: FHS-78 (RSV strain A2) (UniProt P03420)
[2] = biological target: FHS-80 (RSV strain A2) (UniProt P03420)
[3] = biological target: FHS-43 (RSV strain A2) (UniProt P03420)
[4] = biological target: FHS-89 (RSV strain A2) (UniProt P03420)
[5] = biological target: FHS-36 (RSV strain A2) (UniProt P03420)
[6] = biological target: FHS-13 (RSV strain A2) (UniProt P03420)
[7] = biological target: FHS-31 (RSV strain A2) (UniProt P03420)
[8] = biological target: FHS-11 (RSV strain A2) (UniProt P03420)
[9] = biological target: FHS-39 (RSV strain A2) (UniProt P03420)
[10] = biological target: FHS-6 (RSV strain A2) (UniProt P03420)
[11] = biological target: FHS-82 (RSV strain A2) (UniProt P03420)
[12] = biological target: FHS-7 (RSV strain A2) (UniProt P03420)
[13] = biological target: FHS-83 (RSV strain A2) (UniProt P03420)
[14] = biological target: FHS-1 (RSV strain A2) (UniProt P03420)
[15] = biological target: FHS-65 (RSV strain A2) (UniProt P03420)
[16] = biological target: FHM-13 (RSV strain A2) (UniProt P03420)
[17] = biological target: FHS-30 (RSV strain A2) (UniProt P03420)
[18] = biological target: FHS-3 (RSV strain A2) (UniProt P03420)
[19] = biological target: FHS-87 (RSV strain A2) (UniProt P03420)
[20] = biological target: FHS-92 (RSV strain A2) (UniProt P03420)
[21] = biological target: FHS-8 (RSV strain A2) (UniProt P03420)
[22] = biological target: FHS-12 (RSV strain A2) (UniProt P03420)
[23] = biological target: FHS-20 (RSV strain A2) (UniProt P03420)
[24] = biological target: wild-type RSV F protein 1 before artificial mutation (RSV strain A2) (UniProt P03420)
[25] = biological target: FHS-97 (RSV strain A2) (UniProt P03420)
[26] = biological target: FHS-17 (RSV strain A2) (UniProt P03420)
[27] = biological target: FHS-42 (RSV strain A2) (UniProt P03420)
[28] = biological target: FHS-86 (RSV strain A2) (UniProt P03420)
[29] = biological target: FHS-69 (RSV strain A2) (UniProt P03420)
[30] = biological target: FHM-10 (RSV strain A2) (UniProt P03420)
[31] = biological target: FHS-40 (RSV strain A2) (UniProt P03420)
[32] = biological target: FHM-22 (RSV strain A2) (UniProt P03420)
[33] = biological target: FHM-9 (RSV strain A2) (UniProt P03420)
[34] = biological target: FHM-20 (RSV strain A2) (UniProt P03420)
[35] = biological target: FHS-45 (RSV strain A2) (UniProt P03420)
[36] = biological target: FHS-63 (RSV strain A2) (UniProt P03420)
[37] = biological target: FHM-8 (RSV strain A2) (UniProt P03420)
[38] = biological target: FHS-21 (RSV strain A2) (UniProt P03420)
[39] = biological target: FHS-25 (RSV strain A2) (UniProt P03420)
[40] = biological target: FHS-76 (RSV strain A2) (UniProt P03420)
[41] = biological target: FHS-77 (RSV strain A2) (UniProt P03420)

With AM14 monoclonal antibody the OD value [1] was 1.24 OD, the OD value [2] was 0.005 OD and the OD value [3] was 0.006 OD. It also gave an OD value [4] of 0.006 OD, an OD value [5] of 0.009 OD and an OD value [6] of 0.013 OD. For the same substance, the OD value [7] was 0.007 OD, the OD value [8] was 2.04 OD and the OD value [9] was 0.007 OD. The OD value [10] was 2.65 OD, the OD value [11] was 0.063 OD and the OD value [12] was 0.011 OD. The OD value [13] was 0.064 OD, the OD value [14] was 2.03 OD and the OD value [15] was 1.73 OD. The OD value [16] was 1.07 OD, the OD value [17] was 0.009 OD and the OD value [18] was 0.076 OD. It also gave an OD value [19] of 0.239 OD, an OD value [20] of 0.012 OD and an OD value [21] of 0.013 OD. It also gave an OD value [22] of 1.24 OD, an OD value [23] of 0.009 OD and an OD value [24] of 0.014 OD. For the same substance, the OD value [25] was 0.006 OD, the OD value [26] was 0.009 OD and the OD value [27] was 0.01 OD. For the same substance, the OD value [28] was 0.062 OD, the OD value [29] was 1.88 OD and the OD value [30] was 0.01 OD. For the same substance, the OD value [31] was 0.009 OD, the OD value [32] was 1.98 OD and the OD value [33] was 2.12 OD. It also gave an OD value [34] of 0.607 OD, an OD value [35] of 0.12 OD and an OD value [36] of 0.006 OD. It also gave an OD value [37] of 0.016 OD, an OD value [38] of 0.008 OD and an OD value [39] of 0.007 OD. For the same substance, the OD value [40] was 0.821 OD and the OD value [41] was 0.06 OD.
